In the assay the target is recombinant protein phosphatase-1 catalytic subunit alpha (PP1cα) (UniProt P62136 1-330). In words: ITC.

Where no end group is shown, it is not given here. [ ]: non-standard residue; d: D form. pT = C[C@@H](OP(=O)(O)O)[C@H](N)C(=O)O

recombinant protein phosphatase-1 catalytic subunit alpha (PP1cα), sequence (P62136 whole entry): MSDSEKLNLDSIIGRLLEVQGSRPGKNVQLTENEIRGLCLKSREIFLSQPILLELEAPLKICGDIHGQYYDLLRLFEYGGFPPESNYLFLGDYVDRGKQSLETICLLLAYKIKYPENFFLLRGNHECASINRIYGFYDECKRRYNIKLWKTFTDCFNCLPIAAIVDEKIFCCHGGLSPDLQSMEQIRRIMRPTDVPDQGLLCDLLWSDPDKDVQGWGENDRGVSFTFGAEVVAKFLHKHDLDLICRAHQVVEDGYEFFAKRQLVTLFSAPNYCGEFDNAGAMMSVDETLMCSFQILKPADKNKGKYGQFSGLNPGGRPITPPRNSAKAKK

Regarding RQSRRS[pT]QGVTL, the Ka was determined as 2.57e+06 M⁻¹.

For the origin of these results see PMC10003451 (2023).
